Assays:
Experiment in all cases: holdup assay
Parameters in all cases: key: below the threshold = too weak to quantify, mostly under pKd 3.1 to 4
[1] = biological target: FRMPD4, Q14CM0
[2] = biological target: MAGI2_6, Q86UL8
[3] = biological target: T1, NHERF3_4, Q5T2W1
T1 sequence (Q5T2W1 373-468, limits assumed, looked up): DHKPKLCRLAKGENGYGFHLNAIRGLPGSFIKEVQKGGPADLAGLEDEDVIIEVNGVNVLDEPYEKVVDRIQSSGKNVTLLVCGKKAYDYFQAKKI

[4] = biological target: T2, APBA1_2, Q02410
T2 sequence (Q02410 742-832, limits assumed, looked up): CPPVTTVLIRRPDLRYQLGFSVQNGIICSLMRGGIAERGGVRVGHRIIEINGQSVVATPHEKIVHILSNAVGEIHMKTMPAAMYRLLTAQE

[5] = biological target: DLG4_2, P78352
Sequence of DLG4_2, P78352 (P78352 155-259): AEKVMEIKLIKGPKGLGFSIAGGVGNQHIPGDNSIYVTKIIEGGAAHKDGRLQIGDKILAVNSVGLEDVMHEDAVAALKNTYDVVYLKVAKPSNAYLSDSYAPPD

[6] = biological target: LNX1_3, Q8TBB1
Sequence of LNX1_3, Q8TBB1 (Q8TBB1 500-596): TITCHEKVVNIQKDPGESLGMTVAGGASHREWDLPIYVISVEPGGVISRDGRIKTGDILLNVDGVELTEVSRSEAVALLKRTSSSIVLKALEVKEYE

[7] = biological target: GRID2IP_2, A4D2P6
Sequence of GRID2IP_2, A4D2P6 (A4D2P6 272-370): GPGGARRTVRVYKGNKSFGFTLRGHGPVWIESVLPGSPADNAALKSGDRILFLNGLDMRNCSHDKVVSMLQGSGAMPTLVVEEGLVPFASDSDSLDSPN

[8] = biological target: MAGI2_4, Q86UL8
Sequence of MAGI2_4, Q86UL8 (Q86UL8 772-865): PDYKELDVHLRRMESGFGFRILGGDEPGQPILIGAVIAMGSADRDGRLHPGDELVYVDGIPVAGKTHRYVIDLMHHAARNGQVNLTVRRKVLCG

[9] = biological target: T3, SNTG2, Q9NY99
T3 sequence (Q9NY99 68-166, limits assumed, looked up): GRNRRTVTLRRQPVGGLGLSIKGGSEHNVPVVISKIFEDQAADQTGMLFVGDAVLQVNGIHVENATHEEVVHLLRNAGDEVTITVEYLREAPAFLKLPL

[10] = biological target: T4, PTPN13_1, Q12923
T4 sequence (Q12923 1088-1188, limits assumed, looked up): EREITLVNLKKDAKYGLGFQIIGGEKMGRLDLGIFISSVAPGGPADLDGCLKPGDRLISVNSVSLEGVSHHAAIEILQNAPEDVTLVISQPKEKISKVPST

[11] = biological target: DLG1_2, Q12959
Sequence of DLG1_2, Q12959 (Q12959 314-412): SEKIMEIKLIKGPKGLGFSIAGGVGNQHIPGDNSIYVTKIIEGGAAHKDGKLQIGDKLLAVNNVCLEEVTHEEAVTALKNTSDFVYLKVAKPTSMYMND

[12] = biological target: T5, GRIP1_7, Q9Y3R0
T5 sequence (Q9Y3R0 999-1096, limits assumed, looked up): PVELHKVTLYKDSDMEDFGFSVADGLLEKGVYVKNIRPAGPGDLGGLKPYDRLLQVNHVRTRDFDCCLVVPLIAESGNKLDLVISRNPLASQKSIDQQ

[13] = biological target: LIMK2, P53671
Sequence of LIMK2, P53671 (P53671 143-248): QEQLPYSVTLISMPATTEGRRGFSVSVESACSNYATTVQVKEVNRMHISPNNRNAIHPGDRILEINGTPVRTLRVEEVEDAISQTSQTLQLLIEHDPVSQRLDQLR

[14] = biological target: T6, LIN7B, Q9HAP6
T6 sequence (Q9HAP6 88-185, limits assumed, looked up): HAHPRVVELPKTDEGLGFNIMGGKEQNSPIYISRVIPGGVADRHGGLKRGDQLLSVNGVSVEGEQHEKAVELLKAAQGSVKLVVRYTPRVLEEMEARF

[15] = biological target: T7, DLG3_3, Q92796
T7 sequence (Q92796 374-475, limits assumed, looked up): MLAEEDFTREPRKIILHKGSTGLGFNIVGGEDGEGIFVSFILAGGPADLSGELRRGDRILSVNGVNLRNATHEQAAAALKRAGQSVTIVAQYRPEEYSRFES

[16] = biological target: SCRIB_3, Q14160
Sequence of SCRIB_3, Q14160 (Q14160 999-1103): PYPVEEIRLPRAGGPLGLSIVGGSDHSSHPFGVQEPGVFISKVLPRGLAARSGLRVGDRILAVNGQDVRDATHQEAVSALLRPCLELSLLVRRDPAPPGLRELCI

[17] = biological target: PARD3_3, Q8TEW0
Sequence of PARD3_3, Q8TEW0 (Q8TEW0 582-685): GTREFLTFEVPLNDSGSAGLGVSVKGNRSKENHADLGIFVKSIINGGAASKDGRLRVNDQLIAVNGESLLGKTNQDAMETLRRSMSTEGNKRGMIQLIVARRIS

[18] = biological target: NHERF4_2, Q86UT5
Sequence of NHERF4_2, Q86UT5 (Q86UT5 220-308): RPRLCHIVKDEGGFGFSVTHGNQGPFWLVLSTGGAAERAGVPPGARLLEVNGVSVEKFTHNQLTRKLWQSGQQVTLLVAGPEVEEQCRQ

[19] = biological target: T8, MPDZ_12, O75970
T8 sequence (O75970 1857-1958, limits assumed, looked up): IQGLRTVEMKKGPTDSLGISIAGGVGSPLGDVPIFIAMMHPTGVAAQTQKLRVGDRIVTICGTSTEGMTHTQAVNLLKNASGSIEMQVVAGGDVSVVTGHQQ

[20] = biological target: FRMPD2_1, Q68DX3
Sequence of FRMPD2_1, Q68DX3 (Q68DX3 770-861): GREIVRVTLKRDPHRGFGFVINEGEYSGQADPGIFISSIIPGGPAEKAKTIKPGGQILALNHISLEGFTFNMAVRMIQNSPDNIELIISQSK

[21] = biological target: NOS1, P29475
Sequence of NOS1, P29475 (P29475 9-101): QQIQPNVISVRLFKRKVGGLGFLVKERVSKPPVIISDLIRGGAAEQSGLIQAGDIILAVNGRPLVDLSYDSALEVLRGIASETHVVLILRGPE

[22] = biological target: FRMPD2_2, Q68DX3
Sequence of FRMPD2_2, Q68DX3 (Q68DX3 944-1038): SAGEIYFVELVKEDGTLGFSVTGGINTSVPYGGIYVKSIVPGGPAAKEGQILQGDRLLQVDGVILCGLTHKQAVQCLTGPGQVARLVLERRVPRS

[23] = biological target: T9, PDZD2_2, O15018
T9 sequence (O15018 329-429, limits assumed, looked up): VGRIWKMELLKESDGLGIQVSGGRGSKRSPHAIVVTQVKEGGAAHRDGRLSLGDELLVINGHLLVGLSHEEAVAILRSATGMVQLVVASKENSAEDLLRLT

[24] = biological target: GRIP2_7, Q9C0E4
Sequence of GRIP2_7, Q9C0E4 (Q9C0E4 934-1023): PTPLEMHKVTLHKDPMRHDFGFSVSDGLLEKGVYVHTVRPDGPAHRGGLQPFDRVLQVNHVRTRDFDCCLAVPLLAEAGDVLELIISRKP

[25] = biological target: T10, GRIP1_4, Q9Y3R0
T10 sequence (Q9Y3R0 467-571, limits assumed, looked up): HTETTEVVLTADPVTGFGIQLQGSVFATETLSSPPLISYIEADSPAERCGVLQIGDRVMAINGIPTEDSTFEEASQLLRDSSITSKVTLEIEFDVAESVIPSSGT

[26] = biological target: AHNAK1, Q09666
[27] = biological target: T11, MPP2, Q14168
T11 sequence (Q14168 180-250, limits assumed, looked up): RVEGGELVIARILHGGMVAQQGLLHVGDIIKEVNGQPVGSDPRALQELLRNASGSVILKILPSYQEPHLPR

[28] = plain residues with an end cap or a label only (N-terminal biotin on a linker: ado-ado)
[29] = plain residues with an end cap or a label only (N-terminal biotin on a linker: ttds)
[30] = plain residues with an end cap or a label only (N-terminal biotin on a linker: ahx)

Sequence of FRMPD4, Q14CM0 (Q14CM0 67-160): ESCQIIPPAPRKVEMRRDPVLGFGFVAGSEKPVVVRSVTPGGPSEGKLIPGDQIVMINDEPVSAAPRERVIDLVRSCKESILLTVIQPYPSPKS
Sequence of MAGI2_6, Q86UL8 (Q86UL8 1141-1229): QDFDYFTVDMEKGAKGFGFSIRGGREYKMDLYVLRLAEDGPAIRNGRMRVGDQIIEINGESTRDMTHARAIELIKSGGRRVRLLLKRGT

B1: NRXN3_rs746444206, Q9Y4C0 (peptide)
chain: QKNKDKEYYV
[1]; [28]
  pKd: 4.18
[2]; [28]
  pKd: below the threshold
[3]; [28]
  pKd: below the threshold
[4]; [28]
  pKd: 4.02
[5]; [28]
  pKd: 3.56
[6]; [28]
  pKd: 3.99
[7]; [28]
  pKd: below the threshold
[8]; [28]
  pKd: 3.54
[9]; [28]
  pKd: below the threshold
[10]; [28]
  pKd: below the threshold
[11]; [28]
  pKd: below the threshold
[12]; [28]
  pKd: 4.55
[13]; [28]
  pKd: below the threshold
[14]; [28]
  pKd: 3.59
[15]; [28]
  pKd: below the threshold
[16]; [28]
  pKd: below the threshold
[17]; [28]
  pKd: 4.48
[18]; [28]
  pKd: below the threshold
[19]; [28]
  pKd: below the threshold
[20]; [28]
  pKd: 3.69
[21]; [28]
  pKd: 3.88
[22]; [28]
  pKd: 3.62
[23]; [28]
  pKd: 4.5
[24]; [28]
  pKd: 4.8
[25]; [28]
  pKd: below the threshold
[26]; [28]
  pKd: below the threshold
[27]; [28]
  pKd: 4.12

B2: NCBP2L, A6PVI3 (peptide)
chain: RGGFGRQTQI
[1]; [28]
  pKd: below the threshold
[2]; [28]
  pKd: 3.78
[3]; [28]
  pKd: below the threshold
[4]; [28]
  pKd: below the threshold
[5]; [28]
  pKd: 4.64
[6]; [28]
  pKd: below the threshold
[7]; [28]
  pKd: 4.05
[8]; [28]
  pKd: below the threshold
[9]; [28]
  pKd: 3.52
[10]; [28]
  pKd: 3.71
[11]; [28]
  pKd: 4.92
[12]; [28]
  pKd: below the threshold
[13]; [28]
  pKd: below the threshold
[14]; [28]
  pKd: 3.89
[15]; [28]
  pKd: 3.82
[16]; [28]
  pKd: 4.48
[17]; [28]
  pKd: below the threshold
[18]; [28]
  pKd: below the threshold
[19]; [28]
  pKd: 3.76
[20]; [28]
  pKd: below the threshold
[21]; [28]
  pKd: 4.08
[22]; [28]
  pKd: below the threshold
[23]; [28]
  pKd: 3.76
[24]; [28]
  pKd: below the threshold
[25]; [28]
  pKd: below the threshold
[26]; [28]
  pKd: below the threshold
[27]; [28]
  pKd: below the threshold

B3: CBP, Q92793 (peptide)
chain: TGDTLEKFVEGL
[1]; [29]
  pKd: below the threshold
[2]; [29]
  pKd: below the threshold
[3]; [29]
  pKd: below the threshold
[4]; [29]
  pKd: below the threshold
[5]; [29]
  pKd: below the threshold
[6]; [29]
  pKd: below the threshold
[7]; [29]
  pKd: below the threshold
[8]; [29]
  pKd: below the threshold
[9]; [29]
  pKd: below the threshold
[10]; [29]
  pKd: below the threshold
[11]; [29]
  pKd: below the threshold
[12]; [29]
  pKd: below the threshold
[13]; [29]
  pKd: below the threshold
[14]; [29]
  pKd: below the threshold
[15]; [29]
  pKd: below the threshold
[16]; [29]
  pKd: below the threshold
[17]; [29]
  pKd: below the threshold
[18]; [29]
  pKd: below the threshold
[19]; [29]
  pKd: below the threshold
[20]; [29]
  pKd: below the threshold
[21]; [29]
  pKd: below the threshold
[22]; [29]
  pKd: below the threshold
[23]; [29]
  pKd: below the threshold
[24]; [29]
  pKd: below the threshold
[25]; [29]
  pKd: below the threshold
[26]; [29]
  pKd: below the threshold
[27]; [29]
  pKd: below the threshold

B4: APC, P25054 (peptide)
chain: HSGSYLVTSV
[1]; [30]
  pKd: below the threshold
[2]; [30]
  pKd: 4.85
[3]; [30]
  pKd: below the threshold
[4]; [30]
  pKd: 4.03
[5]; [30]
  pKd: 4.98
[6]; [30]
  pKd: below the threshold
[7]; [30]
  pKd: 4.41
[8]; [30]
  pKd: 4.17
[9]; [30]
  pKd: 3.59
[10]; [30]
  pKd: below the threshold
[11]; [30]
  pKd: 5.21
[12]; [30]
  pKd: below the threshold
[13]; [30]
  pKd: below the threshold
[14]; [30]
  pKd: below the threshold
[15]; [30]
  pKd: 4.71
[16]; [30]
  pKd: 4.45
[17]; [30]
  pKd: below the threshold
[18]; [30]
  pKd: below the threshold
[19]; [30]
  pKd: 3.63
[20]; [30]
  pKd: below the threshold
[21]; [30]
  pKd: 3.68
[22]; [30]
  pKd: 4.61
[23]; [30]
  pKd: 4.43
[24]; [30]
  pKd: below the threshold
[25]; [30]
  pKd: below the threshold
[26]; [30]
  pKd: below the threshold
[27]; [30]
  pKd: below the threshold
